This is an account of results in US10967064B2, “Preparation method for a DNA origami based carrier system” (YEDITEPE UNIVERSITESI, priority 2016, dated 2021).

One series relates to MDA-MB-231 cell line. As to the kind of experiment: Cytotoxicity of the DNA origami carrier (cell viability). The series is classed as cell-based. To be noted: MDA-MB-231, concentration range 50-400 nM. On the procedure:
The cytotoxicity assessments of the DNA origami structure were carried out on MDA-MB-231 cell line at a concentration range of 50-400 nM. According to the cell viability results of the experiment, the DNA-tiles are non-toxic to the cells.

A short description of series [1]: Atomic force microscopy (AFM) size of DNA tile on mica. The series is classed as physicochemical. Conditions: dried on mica, non-contact mode; theoretical value 40 nm. The text has this: The DNA tile samples taken from the hybridization media were dropped on mica surface for deposition and subsequently washed with deionized water. When the dropped DNA samples on mica were dried, images acquired at non-contact mode. Considering the distance between the base pairs in the DNA as 0.34 nm and the number of the base pairs in the DNA tile structure from one end to another, […], the theoretical length of an assembled DNA tile can be estimated as 40 nm. A representative AFM image obtained from the DNA tile containing dried droplet area is shown on FIG. 2. […] The marked structure is measured as 64 nm, which is larger than the theoretical value of 40 nm. […] Considering the fact that the formation of DNA based structures is not always 100 percent efficient, this deviation can be acceptable.

A short description of series [2]: Dynamic light scattering analysis of hydrodynamic size. The series is classed as physicochemical. Conditions: DLS, dispersed in water. On the procedure:
In step 1), 2 μL of each complementary oligonucleotide from a 100 μM stock is added into the hybridization buffer TAE/Mg^2+ to have a final volume of 200 μL. The newly prepared DNA origami carrier is characterized using AFM, agarose gel electrophoresis and dynamic light scattering analysis.
For DLS measurements, DNA tiles are dispersed in water. In water, DNA tiles are solvated by water molecules. This hydration layer causes grater diameter than theoretical size of the structure. Hydrodynamic size of DNA tiles was determined as approximately 50 nm, which is in good agreement with AFM results.

B1: DNA tiles: tile shaped DNA origami structure prepared by hybridizing nine complementary oligonucleotides (SEQ ID NOS: 1-9) (nucleic acid)
DNA 1: AGGCACCATCGTAGGAAAATCTGCGTCAGCTCTCCGTACACCAGTGCTTCCATGCGAAGTAAAACGTTCCGATCACCAACGGAGTAAAACGATCTAACTGATAACTAGCACCTCTGCTCACGTGAGGAGTAAAACTTGCC
DNA 2: ATACCGGAGGCTTCCTGTACGGAGAGCTGACGCAGACCTACGATGGACACGCCG
DNA 3: ATGCAACCTGCCTGGCAAGACTCCTCACGTGAGCAGAGGACTACTCATCCGTTA
DNA 4: TTTCCGACTGAGCCCTGCTAGTTATCAGTTAGATCGACTCCGTTGGACGAACAG
DNA 5: ATAGCGCCTGATCGGAACGACTTCGCATGGAAGCACTGGACCGTTCTACCGATT
DNA 6: CTCGCAATCGGTAGAACGGTGGAAGCCTCCGGTATGCATG
DNA 7: AAAAAAAAAACGGCGTGTGGTTGCATAAAAAAAAAA
DNA 8: CGCTATAACGGATGAGTAGTGGGCTCAGTCGGAAAGAGCA
DNA 9: AAAAAAAAAACTGTTCGTGGCGCTATAAAAAAAAAA
modifications: Oligonucleotide 1; Oligonucleotide 2; Oligonucleotide 3; Oligonucleotide 4; Oligonucleotide 5; Oligonucleotide 6; Oligonucleotide 7; Oligonucleotide 8; Oligonucleotide 9
With B1, the “Cytotoxicity (cell viability)” value with MDA-MB-231 cell line is recorded as “non-toxic”. Also, in series [1], the “Size of marked structure in AFM image” value came to 64 nm. Besides, in series [2], the Hydrodynamic size entry is on record as “approximately 50 nm”.
